Test results: paper PMC5852647, “Structural basis of siRNA recognition by TRBP double‐stranded RNA binding domains”
Residue numbers refer to the chain shown, from its start.

T1: TRBP dsRBD12 Cy3B-CF660R (doubly labeled) (human, UniProt Q15633 16-158+=T+159-227, C73A;M100C;C196V;internal_change)
T1 sequence: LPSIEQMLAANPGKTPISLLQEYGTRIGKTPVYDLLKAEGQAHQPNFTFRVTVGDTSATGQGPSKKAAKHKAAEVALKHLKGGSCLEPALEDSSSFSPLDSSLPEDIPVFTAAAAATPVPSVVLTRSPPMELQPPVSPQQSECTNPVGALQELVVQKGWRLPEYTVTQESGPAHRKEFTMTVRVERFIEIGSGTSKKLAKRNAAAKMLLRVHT

T2: TRBP dsRBD12 M100S (human, UniProt Q15633 16-158+=T+159-227, C73A;M100S;C196V;internal_change)
T2 sequence: T1 sequence with C85S

T3: TRBP dsRBD12 M100C/C158S (human, UniProt Q15633 16-158+=T+159-227, C73A;M100C;C158S;C196V;internal_change)
T3 sequence: T1 sequence with C143S

B1: EL86 siRNA (dsRNA)
RNA 1: UUAAUUAUCUAUUCCGUACUU
RNA 2: GUACGGAAUAGAUAAUUAAUU
B2: EL86 siRNA, Cy3B-labeled (dsRNA)
RNA 1: UUAAUUAUCUAUUCCGUACUU
RNA 2: GUACGGAAUAGAUAAUUAAUU
modifications: 3' biotin on EL86up; 3' amino modifier on EL86down

Columns and labels:
[1] = molecular target: T1, TRBP dsRBD12 Cy3B-CF660R (doubly …); test: single-molecule FRET titration; 125 mM KCl, 20 mM Tris-HCl pH 7.4, 295 K; smFRET: 20 mM Tris-HCl pH 7.4, 125 mM KCl (affinity) or 25 mM KCl (orientation), 15 nM BSA, 0.001% Tween-20, 295 K; NMR buffer not in material; settings: protein: recombinant; tags: Cy3B and CF660R at C100 and C158; pET47b(+)-based vector; 19 bp, 3' overhang 2 nt (UU) on both strands
TRBP dsRBD12 M100S = molecular target: T2, TRBP dsRBD12 M100S; test: single-molecule FRET; 25 mM KCl; two configurations; smFRET: 20 mM Tris-HCl pH 7.4, 125 mM KCl (affinity) or 25 mM KCl (orientation), 15 nM BSA, 0.001% Tween-20, 295 K; NMR buffer not in material; settings: protein: recombinant; tags: CF660R at C158; label: Cy3B at 3' end of EL86down; 19 bp, 3' overhang 2 nt (UU) on both strands
TRBP dsRBD12 M100C/C158S = molecular target: T3, TRBP dsRBD12 M100C/C158S; test: as above; settings: protein: recombinant; tags: CF660R at C100; label: Cy3B at 3' end of EL86down; 19 bp, 3' overhang 2 nt (UU) on both strands

| Binder | Kd [1] [nM] | binding result (TRBP dsRBD12 M100S) | binding result (TRBP dsRBD12 M100C/C158S) |
| --- | --- | --- | --- |
| B1 | 0.21 ± 0.03 | – | – |
| B2 | – | binds | binds |
